Here are results for one molecule from patent US20140206628A1.

For orientation: Kd means the equilibrium constant for the complex coming apart.

Conditions in all cases: remark: other sources report otherwise
Test [1] addresses A/AA/Marton/43 (H1N1).
Test [2] deals with A/Beijing/262/95 (H1N1).
The target of test [3] is A/Solomon Islands/3/06 (H1N1).
For test [4], the target named is A/USSR/90/77 (H1N1).

B1: HB80.3 ([change], [change], [change], [change], Delta54-95) (designed binder)
chain: MASTRGSGRPWGFSENLAFELALSFTNKDTPDRWAKVAQYVSGRTPEEVKKHYE
In the case of B1, the dissociation constant (Kd) was 10 nM in test [1], 10 nM in test [2], 100 nM in test [3] and 10 nM in test [4].
